Test results as given in article PMC12416549 (2024).
Positions count from the first letter of the chain named. Names may count otherwise.

T1: TNFR1 (Homo sapiens, UniProt P19438)
T1 chain: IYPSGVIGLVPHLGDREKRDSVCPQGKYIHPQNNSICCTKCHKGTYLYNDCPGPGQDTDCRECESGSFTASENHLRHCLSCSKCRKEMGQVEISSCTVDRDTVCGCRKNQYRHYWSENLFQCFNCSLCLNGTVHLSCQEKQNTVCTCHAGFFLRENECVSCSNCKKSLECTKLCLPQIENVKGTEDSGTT

B1: E26Y (designed binder)
chain: SMEEEVEKAAKEYEKKKKEAIEKHLYKLKAKDKEAAERFLKELEEAAKEYAKDEAKTMSEEEAKRRAKKYKEKVLLSELSEEEQKEIKEAEEKLVRTILKYVEEAAK
B2: V74Q (designed binder)
chain: B1 chain with Y26E, V74Q
B3: E62T (designed binder)
chain: B1 chain with Y26E, E62T
B4: A35E (designed binder)
chain: B1 chain with Y26E, A35E
B5: K48W (designed binder)
chain: B1 chain with Y26E, K48W
B6: S77Y (designed binder)
chain: B1 chain with Y26E, S77Y
B7: H24G (designed binder)
chain: B1 chain with H24G, Y26E
B8: H24C (designed binder)
chain: B1 chain with H24C, Y26E
B9: I98N (designed binder)
chain: B1 chain with Y26E, I98N
B10: E82Y (designed binder)
chain: B1 chain with Y26E, E82Y
B11: A47H (designed binder)
chain: B1 chain with Y26E, A47H
B12: K17W (designed binder)
chain: B1 chain with K17W, Y26E
B13: K11A (designed binder)
chain: B1 chain with K11A, Y26E
B14: A90S (designed binder)
chain: B1 chain with Y26E, A90S
B15: E37P (designed binder)
chain: B1 chain with Y26E, E37P
B16: M2N (designed binder)
chain: B1 chain with M2N, Y26E
B17: L99C (designed binder)
chain: B1 chain with Y26E, L99C
B18: I87D (designed binder)
chain: B1 chain with Y26E, I87D
B19: S1V (designed binder)
chain: B1 chain with S1V, Y26E
B20: V6P (designed binder)
chain: B1 chain with V6P, Y26E
B21: E26V (designed binder)
chain: B1 chain with Y26V
B22: L40M (designed binder)
chain: B1 chain with Y26E, L40M
B23: K93F (designed binder)
chain: B1 chain with Y26E, K93F
B24: K69D (designed binder)
chain: B1 chain with Y26E, K69D
B25: V74M (designed binder)
chain: B1 chain with Y26E, V74M
B26: A10G (designed binder)
chain: B1 chain with A10G, Y26E
B27: E91Y (designed binder)
chain: B1 chain with Y26E, E91Y
B28: D32W (designed binder)
chain: B1 chain with Y26E, D32W
B29: V102N (designed binder)
chain: B1 chain with Y26E, V102N
B30: I98F (designed binder)
chain: B1 chain with Y26E, I98F
B31: E26Q (designed binder)
chain: B1 chain with Y26Q
B32: A63M (designed binder)
chain: B1 chain with Y26E, A63M
B33: K15C (designed binder)
chain: B1 chain with K15C, Y26E
B34: K15D (designed binder)
chain: B1 chain with K15D, Y26E
B35: L75R (designed binder)
chain: B1 chain with Y26E, L75R
B36: K85L (designed binder)
chain: B1 chain with Y26E, K85L
B37: E45L (designed binder)
chain: B1 chain with Y26E, E45L
B38: E72D (designed binder)
chain: B1 chain with Y26E, E72D
B39: Y101E (designed binder)
chain: B1 chain with Y26E, Y101E
B40: K71N (designed binder)
chain: B1 chain with Y26E, K71N
B41: L99Y (designed binder)
chain: B1 chain with Y26E, L99Y
B42: E5A (designed binder)
chain: B1 chain with E5A, Y26E
B43: E44L (designed binder)
chain: B1 chain with Y26E, E44L
B44: E91C (designed binder)
chain: B1 chain with Y26E, E91C
B45: E3L (designed binder)
chain: B1 chain with E3L, Y26E
B46: E60M (designed binder)
chain: B1 chain with Y26E, E60M
B47: A36H (designed binder)
chain: B1 chain with Y26E, A36H
B48: E104I (designed binder)
chain: B1 chain with Y26E, E104I
B49: K31V (designed binder)
chain: B1 chain with Y26E, K31V
B50: I21V (designed binder)
chain: B1 chain with I21V, Y26E
B51: E7S (designed binder)
chain: B1 chain with E7S, Y26E
B52: A67D (designed binder)
chain: B1 chain with Y26E, A67D
B53: L94E (designed binder)
chain: B1 chain with Y26E, L94E
B54: M2Q (designed binder)
chain: B1 chain with M2Q, Y26E
B55: K23S (designed binder)
chain: B1 chain with K23S, Y26E

Target: T1, TNFR1
Experiment: yeast display SC50

| Binder | apparent Kd (screen) |
| --- | --- |
| B1 | 0.869 nM |
| B2 | 29.5 nM |
| B3 | 1.54 nM |
| B4 | 2.25 nM |
| B5 | 2.73 nM |
| B6 | 0.869 nM |
| B7 | 0.718 nM |
| B8 | 0.446 nM |
| B9 | 5.84 nM |
| B10 | 0.653 nM |
| B11 | 0.446 nM |
| B12 | 1.16 nM |
| B13 | 0.446 nM |
| B14 | 0.79 nM |
| B15 | 0.49 nM |
| B16 | 0.49 nM |
| B17 | 13.8 nM |
| B18 | 15.2 nM |
| B19 | 0.869 nM |
| B20 | 0.446 nM |
| B21 | 0.79 nM |
| B22 | 0.593 nM |
| B23 | 0.653 nM |
| B24 | 1.4 nM |
| B25 | 1.54 nM |
| B26 | 0.446 nM |
| B27 | 8.56 nM |
| B28 | 22.2 nM |

| Binder | apparent Kd (screen) |
| --- | --- |
| B29 | 0.446 nM |
| B30 | 4.39 nM |
| B31 | 0.956 nM |
| B32 | 9.41 nM |
| B33 | 1.27 nM |
| B34 | 0.653 nM |
| B35 | 1.16 nM |
| B36 | 0.79 nM |
| B37 | 1.69 nM |
| B38 | 1.4 nM |
| B39 | 0.405 nM |
| B40 | 0.446 nM |
| B41 | 9.41 nM |
| B42 | 0.593 nM |
| B43 | 1.4 nM |
| B44 | 13.8 nM |
| B45 | 12.5 nM |
| B46 | 0.49 nM |
| B47 | 0.49 nM |
| B48 | 0.653 nM |
| B49 | 0.446 nM |
| B50 | 0.446 nM |
| B51 | 2.73 nM |
| B52 | 5.31 nM |
| B53 | 8.56 nM |
| B54 | 0.869 nM |
| B55 | 0.49 nM |
